Assay [1] addresses FtsZ-YFP-mts (E. coli). The assay is described as follows: AUC; sedimentation velocity, 7 μM protein, working buffer, 4 mM GTP and 5 mM Mg2+; monomers to higher-order species.
Assay [2] has as its target FtsZ-YFP-mts (E. coli). The assay is described as follows: single-molecule TIRF residence time; subunits labelled with GFP-Booster Atto647N in filaments on the bilayer, about 0.2 μM protein, with GTP, 5 mM free Mg2+ (high-density mesh).
Assay [3] addresses FtsZ-YFP-mts (E. coli). Briefly: single-molecule TIRF residence time; subunits labelled with GFP-Booster Atto647N in filaments on the bilayer, about 0.2 μM protein, 4 mM GTP, 1 mM free Mg2+ (dynamic rings); double exponential fit with photobleaching term.

For FtsZ-YFP-mts, the percent of protein in higher-order species in assay [1] worked out at 70%. The mean residence time of single subunits within the filaments on the membrane in assay [2] is 15.1 s; in assay [3] it was 11.5 s.

The record behind these values is paper PMC5979038.
